{
  "source": "paper PMC9381698",
  "about": "“Generation of synthetic antibody fragments with optimal complementarity determining region lengths for Notch-1 recognition” (Frontiers in Microbiology, 2022)",
  "binders": {"B1": {"name": "Fab N1/F/R3 (purified soluble Fab) (Fab, V domains shown)", "VH": "EVQLVESGGGLVQPGGSLRLSCAASGFNIYSSYMHWVRQAPGKGLEWVASIYPYYGYTSYADSVKGRFTISADTSKNTAYLQMNSLRAEDTAVYYCARYFSYGPFYYGSGLDYWGQGTLVTVSS", "VL": "DIQMTQSPSSLSASVGDRVTITCRASQSVSSAVAWYQQKPGKAPKLLIYSASSLYSGVPSRFSGSRSGTDFTLTISSLQPEDFATYYCQQGFSLITFGQGTKVEIK", "notes": "light chain on the modified trastuzumab framework of Library-F (Persson et al., 2013); CDRs L1 and L2 fixed; clone reconstructed from NGS information; Fab heavy chain on the modified trastuzumab framework of Library-F; medium CDRH3 length; The Fab is detected by an anti-HIS antibody; source: E. coli BL21, purified (Protein-L resin)"}, "B2": {"name": "Fab N1/F/3 (purified soluble Fab) (Fab, V domains shown)", "VH": "EVQLVESGGGLVQPGGSLRLSCAASGFNLYSYYIHWVRQAPGKGLEWVASISSYYGYTSYADSVKGRFTISADTSKNTAYLQMNSLRAEDTAVYYCARYWHGALDYWGQGTLVTVSS", "VL": "DIQMTQSPSSLSASVGDRVTITCRASQSVSSAVAWYQQKPGKAPKLLIYSASSLYSGVPSRFSGSRSGTDFTLTISSLQPEDFATYYCQQGYFTYLFTFGQGTKVEIK", "notes": "light chain on the modified trastuzumab framework of Library-F (Persson et al., 2013); CDRs L1 and L2 fixed; Fab heavy chain on the modified trastuzumab framework of Library-F; short CDRH3; The Fab is detected by an anti-HIS antibody; source: E. coli BL21, purified (Protein-L resin)"}, "B3": {"name": "Fab N1/F/R1 (purified soluble Fab) (Fab, V domains shown)", "VH": "EVQLVESGGGLVQPGGSLRLSCAASGFNIYSSYIHWVRQAPGKGLEWVASIYPYYGSTYYADSVKGRFTISADTSKNTAYLQMNSLRAEDTAVYYCARYAHFSVYGAMDYWGQGTLVTVSS", "VL": "DIQMTQSPSSLSASVGDRVTITCRASQSVSSAVAWYQQKPGKAPKLLIYSASSLYSGVPSRFSGSRSGTDFTLTISSLQPEDFATYYCQQWYGGYALFTFGQGTKVEIK", "notes": "as for B1"}, "B4": {"name": "phage-displayed Fab N1/F/R2 (Fab, V domains shown)", "VH": "EVQLVESGGGLVQPGGSLRLSCAASGFNFSSSSIHWVRQAPGKGLEWVASIYSYYGYTYYADSVKGRFTISADTSKNTAYLQMNSLRAEDTAVYYCARSWWGGSWYAALDYWGQGTLVTVSS", "VL": "B1 VL with G91W, F92W", "notes": "as the light chain of m15; as the heavy chain of m15; Reconstructed by Kunkel mutagenesis in the MBP phagemid"}, "B5": {"name": "phage-displayed Fab N1/F/R3 (Fab, V domains shown)", "VH": "B1 VH", "VL": "B1 VL", "notes": "as the light chain of m16; as the heavy chain of m16; Reconstructed by Kunkel mutagenesis in the MBP phagemid"}, "B6": {"name": "phage-displayed Fab N1/ModF/1 (Fab, V domains shown)", "VH": "EVQLVESGGGLVQPGGSLRLSCAASGFNLYSSYMHWVRQAPGKGLEWVAYISPSYSYTYYADSVKGRFTISADTSKNTAYLQMNSLRAEDTAVYYCARWGHSPSGVGWYGALDYWGQGTLVTVSS", "VL": "DIQMTQSPSSLSASVGDRVTITCRASQSVSSAVAWYQQKPGKAPKLLIYSASSLYSGVPSRFSGSRSGTDFTLTISSLQPEDFATYYCQQPSSHSAALITFGQGTKVEIK", "notes": "light chain on the modified trastuzumab framework of the Modified-F library (template: anti-MBP Fab phagemid of Library-F, Persson et al., 2013); CDRs L1 and L2 fixed; Fab heavy chain on the modified trastuzumab framework of the Modified-F library; The Modified-F library uses an M13 system that allows bivalent Fab display"}, "B7": {"name": "Fab N1/F/1 (purified soluble Fab) (Fab, V domains shown)", "VH": "EVQLVESGGGLVQPGGSLRLSCAASGFNISSYSMHWVRQAPGKGLEWVAYISSSYGSTYYADSVKGRFTISADTSKNTAYLQMNSLRAEDTAVYYCARSWALDYWGQGTLVTVSS", "VL": "B1 VL with G91Y, F92W, S93G, L94P", "notes": "as for B2"}, "B8": {"name": "Fab N1/F/2 (purified soluble Fab) (Fab, V domains shown)", "VH": "EVQLVESGGGLVQPGGSLRLSCAASGFNLSSYSIHWVRQAPGKGLEWVASISSSYGYTYYADSVKGRFTISADTSKNTAYLQMNSLRAEDTAVYYCARGYYAFDYWGQGTLVTVSS", "VL": "B2 VL with G91W, Y92W, F93S, T94F, Y95P, F97I", "notes": "as for B2"}, "B9": {"name": "Fab N1/ModF/2 (purified soluble Fab) (Fab, V domains shown)", "VH": "EVQLVESGGGLVQPGGSLRLSCAASGFNLYSSYIHWVRQAPGKGLEWVAYISPYSGSTYYADSVKGRFTISADTSKNTAYLQMNSLRAEDTAVYYCARYGYAYHPYHSGYWYGALDYWGQGTLVTVSS", "VL": "B6 VL with P91V, S93A, H94G, S95Y, A96G, A97P, L98P", "notes": "light chain on the modified trastuzumab framework of the Modified-F library (template: anti-MBP Fab phagemid of Library-F, Persson et al., 2013); CDRs L1 and L2 fixed; Fab heavy chain on the modified trastuzumab framework of the Modified-F library; long CDRH3; The Fab is detected by an anti-HIS antibody; source: E. coli BL21, purified (Protein-L resin)"}, "B10": {"name": "Fab N1/ModF/5 (purified soluble Fab) (Fab, V domains shown)", "VH": "EVQLVESGGGLVQPGGSLRLSCAASGFNISSSYMHWVRQAPGKGLEWVASIYSYSGSTYYADSVKGRFTISADTSKNTAYLQMNSLRAEDTAVYYCARSGYSGVSGSVYSYWPFYGLDYWGQGTLVTVSS", "VL": "B6 VL with P91G, S92P, S93Y, S95G, A96Y, A97S", "notes": "as for B9"}, "B11": {"name": "Fab N1/F/R3 (Fab, V domains shown)", "VH": "B1 VH", "VL": "B1 VL", "notes": "Library-F rare Fab reconstructed from NGS information, modified trastuzumab framework; Library-F rare Fab reconstructed from NGS information, modified trastuzumab framework, CDRs L1 and L2 fixed; The Fab has a His tag (detected with anti-HIS antibody and biosensors); Library-F framework: Persson et al., 2013; source: E. coli BL21, purified (Protein-L resin)"}, "B12": {"name": "Fab N1/F/1 (Fab, V domains shown)", "VH": "B7 VH", "VL": "B1 VL with G91Y, F92W, S93G, L94P", "notes": "Library-F Fab on a modified trastuzumab framework; Library-F Fab on a modified trastuzumab framework, CDRs L1 and L2 fixed; The Fab has a His tag (detected with anti-HIS antibody and biosensors); Library-F framework: Persson et al., 2013; source: E. coli BL21, purified (Protein-L resin)"}, "B13": {"name": "Fab N1/F/R2 (Fab, V domains shown)", "VH": "B4 VH", "VL": "B1 VL with G91W, F92W", "notes": "as for B11"}, "B14": {"name": "Fab N1/F/3 (Fab, V domains shown)", "VH": "B2 VH", "VL": "B2 VL", "notes": "as for B12"}, "B15": {"name": "Fab N1/F/2 (Fab, V domains shown)", "VH": "B8 VH", "VL": "B2 VL with G91W, Y92W, F93S, T94F, Y95P, F97I", "notes": "as for B12"}, "B16": {"name": "Fab N1/ModF/5 (Fab, V domains shown)", "VH": "B10 VH", "VL": "B6 VL with P91G, S92P, S93Y, S95G, A96Y, A97S", "notes": "Modified-F library Fab on a modified trastuzumab framework; Modified-F library Fab on a modified trastuzumab framework, CDRs L1 and L2 fixed; The Fab has a His tag (detected with anti-HIS antibody and biosensors); Template phagemid derived from the anti-MBP Fab of Library-F (Persson et al., 2013); source: E. coli BL21, purified (Protein-L resin)"}, "B17": {"name": "Fab N1/ModF/2 (Fab, V domains shown)", "VH": "B9 VH", "VL": "B6 VL with P91V, S93A, H94G, S95Y, A96G, A97P, L98P", "notes": "as for B16"}, "B18": {"name": "Fab N1/F/R1 (Fab, V domains shown)", "VH": "B3 VH", "VL": "B3 VL", "notes": "as for B11"}},
  "note": "Positions count from the first letter of the chain named.",
  "data": [
    {"target": "T1, Jagged-2 receptor ectodomain (Homo sapiens (assumed), UniProt Q9Y219)", "T1 construct": "Jagged-2 ectodomain; it may be an Fc fusion like the Notch proteins; also called J2", "test": "ELISA; single-point Fab-ELISA for specificity: proteins immobilised at 5 ug/ml on MaxiSorp plates; purified Fab at 1 uM; detected with HRP-conjugated anti-HIS antibody, Abs450", "settings": "both partners purified", "T1 sequence (Q9Y219 27-1080)": "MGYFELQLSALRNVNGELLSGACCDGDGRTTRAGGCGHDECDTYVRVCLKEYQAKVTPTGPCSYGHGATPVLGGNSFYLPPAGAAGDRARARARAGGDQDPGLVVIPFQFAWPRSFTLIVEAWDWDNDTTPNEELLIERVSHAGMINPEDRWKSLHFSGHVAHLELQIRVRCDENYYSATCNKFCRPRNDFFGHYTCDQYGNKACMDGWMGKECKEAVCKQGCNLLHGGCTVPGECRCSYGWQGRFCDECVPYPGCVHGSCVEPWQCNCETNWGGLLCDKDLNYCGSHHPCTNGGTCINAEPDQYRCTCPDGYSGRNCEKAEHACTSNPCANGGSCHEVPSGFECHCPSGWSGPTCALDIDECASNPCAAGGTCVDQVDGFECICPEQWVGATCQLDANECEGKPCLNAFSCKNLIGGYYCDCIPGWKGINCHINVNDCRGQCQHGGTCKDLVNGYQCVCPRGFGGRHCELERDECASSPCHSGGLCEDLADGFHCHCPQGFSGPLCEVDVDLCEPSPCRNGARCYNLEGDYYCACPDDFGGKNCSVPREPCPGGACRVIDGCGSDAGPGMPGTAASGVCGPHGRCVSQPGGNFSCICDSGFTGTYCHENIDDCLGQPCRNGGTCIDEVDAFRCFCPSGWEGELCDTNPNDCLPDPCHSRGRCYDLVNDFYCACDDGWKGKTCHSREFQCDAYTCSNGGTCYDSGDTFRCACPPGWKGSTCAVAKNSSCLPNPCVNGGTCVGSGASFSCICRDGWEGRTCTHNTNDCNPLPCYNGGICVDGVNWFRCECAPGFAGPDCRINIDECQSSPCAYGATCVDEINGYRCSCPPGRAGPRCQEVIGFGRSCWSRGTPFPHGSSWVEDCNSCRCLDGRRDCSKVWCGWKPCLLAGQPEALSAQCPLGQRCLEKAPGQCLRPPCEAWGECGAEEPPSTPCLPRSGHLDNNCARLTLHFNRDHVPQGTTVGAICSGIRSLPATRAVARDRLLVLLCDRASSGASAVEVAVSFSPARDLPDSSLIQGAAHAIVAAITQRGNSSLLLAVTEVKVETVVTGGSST", "values": [
      {"binder": "B1", "binding result": "binds"},
      {"binder": "B2", "binding result": "binds"},
      {"binder": "B3", "binding result": "binds"}
    ]},
    {"target": "T2, recombinant Fc-tag-fused human Notch-1 extracellular domain (Homo sapiens, UniProt P46531)", "T2 construct": "Notch-1, human, extracellular domain; No catalogue number and no residue limits are printed; also called N1; source: bought: R&D Systems", "test": "ELISA; phage-ELISA: Notch-1 and control proteins immobilised at 5 ug/ml on MaxiSorp plates; phage-displayed Fab at 10^12 PFU/ml in PBT for 30 min; detected with HRP-conjugated anti-M13 antibody, Abs450", "settings": "one partner purified", "units": {"fold weaker phage-ELISA signal than the high-frequency Fabs": "fold"}, "T2 sequence (P46531 19-1735)": "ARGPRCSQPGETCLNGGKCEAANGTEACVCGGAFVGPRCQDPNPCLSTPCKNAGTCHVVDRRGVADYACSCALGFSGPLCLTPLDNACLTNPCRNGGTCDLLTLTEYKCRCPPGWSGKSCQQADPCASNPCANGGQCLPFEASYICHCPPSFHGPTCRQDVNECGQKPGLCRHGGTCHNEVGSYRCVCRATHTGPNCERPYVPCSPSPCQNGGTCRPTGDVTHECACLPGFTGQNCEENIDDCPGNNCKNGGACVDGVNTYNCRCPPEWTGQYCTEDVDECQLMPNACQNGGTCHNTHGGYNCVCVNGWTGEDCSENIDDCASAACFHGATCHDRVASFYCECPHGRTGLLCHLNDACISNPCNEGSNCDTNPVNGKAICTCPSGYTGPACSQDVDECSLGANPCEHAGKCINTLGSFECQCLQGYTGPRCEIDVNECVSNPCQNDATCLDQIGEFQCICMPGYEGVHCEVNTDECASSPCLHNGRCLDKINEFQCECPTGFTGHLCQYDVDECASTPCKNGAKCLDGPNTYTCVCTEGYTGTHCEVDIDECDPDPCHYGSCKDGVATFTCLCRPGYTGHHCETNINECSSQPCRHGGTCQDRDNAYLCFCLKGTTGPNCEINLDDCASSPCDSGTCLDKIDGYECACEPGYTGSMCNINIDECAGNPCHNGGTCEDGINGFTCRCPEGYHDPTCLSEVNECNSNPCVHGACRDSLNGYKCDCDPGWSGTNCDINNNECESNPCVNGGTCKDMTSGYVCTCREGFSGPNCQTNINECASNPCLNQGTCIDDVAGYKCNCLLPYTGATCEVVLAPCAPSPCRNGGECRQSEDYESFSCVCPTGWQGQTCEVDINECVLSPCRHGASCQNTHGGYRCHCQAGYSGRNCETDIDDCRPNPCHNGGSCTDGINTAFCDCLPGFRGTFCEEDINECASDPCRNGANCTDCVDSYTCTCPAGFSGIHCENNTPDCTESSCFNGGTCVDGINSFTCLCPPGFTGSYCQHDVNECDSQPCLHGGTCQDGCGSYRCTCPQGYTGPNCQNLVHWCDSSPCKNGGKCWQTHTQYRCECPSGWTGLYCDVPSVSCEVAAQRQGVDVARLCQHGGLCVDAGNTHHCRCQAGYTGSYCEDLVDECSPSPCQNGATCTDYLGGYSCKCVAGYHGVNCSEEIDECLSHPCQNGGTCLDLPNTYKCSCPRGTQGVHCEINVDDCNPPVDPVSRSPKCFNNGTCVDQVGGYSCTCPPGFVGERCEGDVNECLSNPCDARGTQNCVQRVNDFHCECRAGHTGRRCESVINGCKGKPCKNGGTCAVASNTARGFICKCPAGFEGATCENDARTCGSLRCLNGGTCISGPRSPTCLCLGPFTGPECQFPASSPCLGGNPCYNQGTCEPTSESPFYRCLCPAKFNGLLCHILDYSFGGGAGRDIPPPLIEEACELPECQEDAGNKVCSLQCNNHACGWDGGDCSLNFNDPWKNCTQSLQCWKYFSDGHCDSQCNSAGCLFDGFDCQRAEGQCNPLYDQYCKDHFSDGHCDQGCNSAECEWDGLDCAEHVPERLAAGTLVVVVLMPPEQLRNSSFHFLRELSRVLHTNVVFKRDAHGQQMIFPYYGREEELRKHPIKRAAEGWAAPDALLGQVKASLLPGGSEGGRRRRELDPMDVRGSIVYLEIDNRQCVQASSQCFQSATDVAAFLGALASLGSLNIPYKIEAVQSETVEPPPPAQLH", "values": [
      {"binder": "B4", "fold weaker phage-ELISA signal than the high-frequency Fabs": "~4"},
      {"binder": "B5", "fold weaker phage-ELISA signal than the high-frequency Fabs": "~10"},
      {"binder": "B6", "binding result": "binds"}
    ]},
    {"target": "T2, recombinant Fc-tag-fused human Notch-1 …", "test": "ELISA; multi-point Fab-ELISA: target immobilised at 5 ug/ml on MaxiSorp plates; purified Fab 0.01 nM-1 uM in PT for 30 min; detected with HRP-conjugated anti-HIS antibody; EC50 from a one-site specific-binding fit", "settings": "both partners purified", "units": {"EC50": "nM"}, "values": [
      {"binder": "B7", "EC50": "~4"},
      {"binder": "B1", "EC50": 37},
      {"binder": "B8", "EC50": "~4"},
      {"binder": "B2", "EC50": "~4"},
      {"binder": "B9", "EC50": 1.7},
      {"binder": "B10", "EC50": 2.4},
      {"binder": "B3", "EC50": "~4"}
    ]},
    {"target": "T3, recombinant Fc-tag-fused human Notch-1 extracellular domain (Homo sapiens, UniProt P46531)", "T3 construct": "Notch-1, human, extracellular domain; the R&D Systems product may hold only part of the ectodomain (surmise); also called N1; Fc-Notch; source: bought: R&D Systems", "test": "BLI; Fabs immobilised on amine-reactive generation-2 or anti-Fab CH1 biosensors, target proteins in solution at at least three concentrations; 25°C, PBS; global fit to a 1:1 binding model; apparent constants (Fc fusions may dimerize)", "settings": "both partners purified", "units": {"koff": "s⁻¹", "kon": "M⁻¹ s⁻¹"}, "T3 sequence (P46531 19-1735)": "as above", "values": [
      {"binder": "B11", "koff": 0.000484, "kon": 85300},
      {"binder": "B12", "koff": 0.000118, "kon": 296000},
      {"binder": "B13", "koff": "6.91e-05", "kon": 54400},
      {"binder": "B14", "koff": 0.000218, "kon": 122000},
      {"binder": "B15", "koff": 0.000123, "kon": 322000},
      {"binder": "B16", "koff": "8.15e-05", "kon": 124000},
      {"binder": "B17", "koff": "1.91e-05", "kon": 158000},
      {"binder": "B18", "koff": 0.000154, "kon": 76400}
    ]},
    {"target": "T4, Jagged-2 receptor ectodomain (Homo sapiens (assumed), UniProt Q9Y219)", "T4 construct": "Jagged-2 ectodomain; Probably an Fc fusion like the Notch proteins (surmise); also called J2", "test": "BLI; Fabs immobilised on amine-reactive generation-2 or anti-Fab CH1 biosensors, target proteins in solution at at least three concentrations; 25°C, PBS; global fit to a 1:1 binding model; apparent constants (Fc fusions may dimerize)", "settings": "both partners purified", "units": {"koff": "s⁻¹", "kon": "M⁻¹ s⁻¹"}, "T4 sequence (Q9Y219 27-1080)": "as the sequence (Q9Y219 27-1080) above", "values": [
      {"binder": "B13", "koff": 0.0226, "kon": 313000}
    ]},
    {"target": "T2, recombinant Fc-tag-fused human Notch-1 …", "test": "BLI; Octet RED384; Fabs immobilised on amine-reactive generation-2 or anti-Fab CH1 biosensors, target proteins in solution at three or more concentrations; 25 C, PBS; global 1:1 fit; apparent KD (Fc-Notch proteins may dimerize, avidity)", "settings": "both partners purified", "units": {"Kd": "nM"}, "values": [
      {"binder": "B7", "Kd": "0.45 ± 0.05"},
      {"binder": "B1", "Kd": 6.6},
      {"binder": "B8", "Kd": "0.45 ± 0.05"},
      {"binder": "B2", "Kd": 1.88},
      {"binder": "B9", "Kd": 0.16},
      {"binder": "B10", "Kd": 0.68},
      {"binder": "B3", "Kd": 1.98}
    ]}
  ]
}
